Assay results from US20180010117.

Tests used:
Test in all cases: cell_activity
[1] = system: ZFN SBS#61036 (engineered); conditions: paired with 61041, K562, 800 ng RNA each; 14.5 at 200 ng; with 61042 40.6
[2] = system: ZFN SBS#61034 (engineered); conditions: paired with 61041, K562, 800 ng RNA each; 9.6 at 200 ng; with 61042 26.1
[3] = system: ZFN SBS#61035 (engineered); conditions: paired with 61029, K562, 800 ng RNA each; 63.6 at 200 ng; with 61028 68.7
[4] = system: ZFN SBS#61033 (engineered); conditions: paired with 61029, K562, 800 ng RNA each; 76.9 at 200 ng; with 61028 73.5
[5] = system: ZFN SBS#61042 (engineered); conditions: paired with 61036, K562, 800 ng RNA each; 12.9 at 200 ng; with 61034 26.1
[6] = system: ZFN SBS#61041 (engineered); conditions: paired with 61036, K562, 800 ng RNA each; 14.5 at 200 ng; with 61034 30.1
[7] = system: ZFN SBS#61029 (engineered); conditions: paired with 61033, K562, 800 ng RNA each; 76.9 at 200 ng; with 61035 80.7
[8] = system: ZFN SBS#61028 (engineered); conditions: paired with 61033, K562, 800 ng RNA each; 54.3 at 200 ng; with 61035 68.7
[9] = system: ZFN SBS#61027 (engineered); conditions: paired with 61024, K562, 800 ng RNA each; 4.5 at 200 ng

CCCCAGTTGTAATTGTGAATATCTCATA (double strand) [CEP290 site of 61034/61036]
activity [1]: 43.6 % indels | activity [2]: 30.1 % indels

CCAATAGGGATAGGTATGAGATATTCAC (double strand) [CEP290 site of 61033/61035]
activity [3]: 80.7 % indels | activity [4]: 85.4 % indels

CCAATAGGGATAGGTATGAGATATTCAC (double strand) [CEP290 site of 61041/61042]
activity [5]: 40.6 % indels | activity [6]: 43.6 % indels

TGGCCCCAGTTGTAATTGTGAATATCTC (double strand) [CEP290 site of 61028/61029]
activity [7]: 85.4 % indels | activity [8]: 73.5 % indels

TAGGGATAGGTATGAGATATTCACAATT (double strand) [CEP290 site of 61027]
activity [9]: 27.1 % indels
